Earlier results in article PMC11209288.

Target: inositol 1,4,5-triphosphate receptor (IP3R) (Homo sapiens) (UniProt Q14643)
Sequence of UniProt Q14643 (Q14643 whole entry): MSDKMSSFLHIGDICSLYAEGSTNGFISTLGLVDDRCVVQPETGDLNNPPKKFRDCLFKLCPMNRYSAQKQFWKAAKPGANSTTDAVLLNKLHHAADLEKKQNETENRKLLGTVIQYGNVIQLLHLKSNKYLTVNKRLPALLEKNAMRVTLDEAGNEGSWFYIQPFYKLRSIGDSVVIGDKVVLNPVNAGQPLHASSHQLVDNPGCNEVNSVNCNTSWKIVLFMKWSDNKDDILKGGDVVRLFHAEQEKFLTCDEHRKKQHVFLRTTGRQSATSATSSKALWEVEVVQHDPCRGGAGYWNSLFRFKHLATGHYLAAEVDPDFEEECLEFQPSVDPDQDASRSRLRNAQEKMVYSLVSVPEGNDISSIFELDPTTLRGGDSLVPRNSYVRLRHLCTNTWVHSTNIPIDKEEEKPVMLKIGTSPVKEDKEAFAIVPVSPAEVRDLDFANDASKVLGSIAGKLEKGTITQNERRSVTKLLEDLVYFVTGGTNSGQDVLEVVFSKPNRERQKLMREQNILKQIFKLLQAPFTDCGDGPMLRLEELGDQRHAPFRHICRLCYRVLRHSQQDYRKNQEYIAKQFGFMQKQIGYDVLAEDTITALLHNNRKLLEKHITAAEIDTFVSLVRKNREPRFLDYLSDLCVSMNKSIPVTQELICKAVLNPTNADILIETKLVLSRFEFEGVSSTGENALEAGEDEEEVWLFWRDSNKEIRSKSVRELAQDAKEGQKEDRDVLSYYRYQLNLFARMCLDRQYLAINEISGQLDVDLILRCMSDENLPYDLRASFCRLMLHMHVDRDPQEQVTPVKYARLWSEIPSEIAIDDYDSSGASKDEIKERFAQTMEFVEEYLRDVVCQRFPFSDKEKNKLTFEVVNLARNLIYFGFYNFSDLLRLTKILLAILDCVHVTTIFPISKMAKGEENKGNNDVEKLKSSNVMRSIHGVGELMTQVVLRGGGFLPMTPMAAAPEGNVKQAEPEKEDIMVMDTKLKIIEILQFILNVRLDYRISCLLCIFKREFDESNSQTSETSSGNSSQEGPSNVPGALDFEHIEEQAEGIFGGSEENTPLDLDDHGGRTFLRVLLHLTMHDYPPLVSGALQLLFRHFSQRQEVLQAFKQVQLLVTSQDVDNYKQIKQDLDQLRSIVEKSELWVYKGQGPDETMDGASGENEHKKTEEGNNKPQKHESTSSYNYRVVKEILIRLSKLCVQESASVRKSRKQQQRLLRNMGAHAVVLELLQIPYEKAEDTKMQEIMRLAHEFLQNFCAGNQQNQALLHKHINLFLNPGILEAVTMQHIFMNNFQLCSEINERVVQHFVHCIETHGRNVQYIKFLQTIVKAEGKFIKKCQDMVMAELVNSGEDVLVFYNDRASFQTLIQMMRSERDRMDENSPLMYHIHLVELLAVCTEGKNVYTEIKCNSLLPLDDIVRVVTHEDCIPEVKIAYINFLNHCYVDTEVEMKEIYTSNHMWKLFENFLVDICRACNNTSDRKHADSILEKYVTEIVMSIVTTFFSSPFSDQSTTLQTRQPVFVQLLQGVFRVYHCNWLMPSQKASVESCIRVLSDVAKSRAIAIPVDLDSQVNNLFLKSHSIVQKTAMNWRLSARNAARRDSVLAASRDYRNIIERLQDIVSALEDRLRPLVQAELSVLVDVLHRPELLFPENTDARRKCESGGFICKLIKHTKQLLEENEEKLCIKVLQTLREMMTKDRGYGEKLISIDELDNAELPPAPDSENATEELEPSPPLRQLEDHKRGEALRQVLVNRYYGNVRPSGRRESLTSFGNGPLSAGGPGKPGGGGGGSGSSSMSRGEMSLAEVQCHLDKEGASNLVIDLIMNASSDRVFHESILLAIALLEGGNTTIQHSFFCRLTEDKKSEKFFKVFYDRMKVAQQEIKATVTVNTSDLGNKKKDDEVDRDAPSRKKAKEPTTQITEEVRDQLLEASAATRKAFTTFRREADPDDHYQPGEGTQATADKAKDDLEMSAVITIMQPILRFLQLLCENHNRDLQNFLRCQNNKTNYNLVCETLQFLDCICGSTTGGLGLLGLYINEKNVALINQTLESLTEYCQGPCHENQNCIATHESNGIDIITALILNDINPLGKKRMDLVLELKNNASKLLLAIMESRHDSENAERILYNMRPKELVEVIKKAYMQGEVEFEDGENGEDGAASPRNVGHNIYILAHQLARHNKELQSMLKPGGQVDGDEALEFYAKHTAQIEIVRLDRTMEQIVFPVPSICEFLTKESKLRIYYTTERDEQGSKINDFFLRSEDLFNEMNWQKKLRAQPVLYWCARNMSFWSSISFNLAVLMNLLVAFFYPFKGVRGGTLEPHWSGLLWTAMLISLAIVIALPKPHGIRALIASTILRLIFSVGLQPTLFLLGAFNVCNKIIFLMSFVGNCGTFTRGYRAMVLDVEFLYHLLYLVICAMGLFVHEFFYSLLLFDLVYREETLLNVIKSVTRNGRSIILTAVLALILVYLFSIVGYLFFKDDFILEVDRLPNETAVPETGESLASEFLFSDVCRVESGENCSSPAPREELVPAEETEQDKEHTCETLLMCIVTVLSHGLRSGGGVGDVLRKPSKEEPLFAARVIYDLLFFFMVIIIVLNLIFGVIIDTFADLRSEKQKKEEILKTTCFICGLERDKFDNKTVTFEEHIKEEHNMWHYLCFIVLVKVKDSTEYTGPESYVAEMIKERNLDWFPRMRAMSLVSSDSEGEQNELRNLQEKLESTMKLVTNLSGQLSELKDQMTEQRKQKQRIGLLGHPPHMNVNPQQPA

Kd: 65 nM
Substance: Bok (from UniProt Q9UMX3)
